The target in one assay is IDH1 (UniProt O75874). Kind of assay: co-IP of Flag-IDH1 and HA-IDH1. As to conditions: reference: Flag-IDH1 wild type, MPA; sites T77.
For the next assay, the target named is OCT6 (POU3F1) (UniProt Q03052). As to the kind of experiment: co-immunoprecipitation. As to conditions: reference: wild type, MPA; sites T77.
The target of the next assay is isocitrate (ICT). Kind of assay: SPR. As to conditions: 1:1 binding model.

Chain of UniProt O75874 (O75874 whole entry T77A): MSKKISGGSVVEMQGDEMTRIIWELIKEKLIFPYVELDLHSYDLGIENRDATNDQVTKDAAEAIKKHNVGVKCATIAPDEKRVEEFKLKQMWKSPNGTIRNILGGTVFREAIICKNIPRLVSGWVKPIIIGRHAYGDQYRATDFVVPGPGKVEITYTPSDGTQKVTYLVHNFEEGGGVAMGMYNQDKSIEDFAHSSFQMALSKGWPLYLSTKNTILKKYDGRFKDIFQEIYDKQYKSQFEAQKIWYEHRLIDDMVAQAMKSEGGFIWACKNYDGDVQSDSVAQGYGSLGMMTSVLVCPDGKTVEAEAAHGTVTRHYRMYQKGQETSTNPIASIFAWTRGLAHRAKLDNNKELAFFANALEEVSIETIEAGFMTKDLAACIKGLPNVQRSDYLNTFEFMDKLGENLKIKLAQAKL

“IDH1 (from UniProt O75874) Flag-IDH1 T77A, MPA”: the “binding against the reference” value with IDH1 is “weaker”.

With IDH1 (from UniProt O75874) T77A, MPA, in the assay with OCT6 (POU3F1), the “binding against the reference” value is given as “weaker”.

As to recombinant IDH1 WT T77A, the Kd with isocitrate (ICT) stood at 112 nM.

Source of the values: paper PMC11187910.
